Experimental data reported in patent publication US20070189963A1 (EIDGENOSSISCHE TECHNISCHE HOCHSCHULE ZURICH, published 2007).
Blank lines part the entries; values can stand above or below the molecule they belong to.

Legend:
[1] = target: hen egg lysozyme (hen) (UniProt P00698); assay: 125I-labeled scFv loaded on an antigen column, counting of flow-through and eluate
[2] = target: hen egg lysozyme (hen) (UniProt P00698); assay: affinity chromatography of the Cy5 conjugate on an antigen column
[3] = target: T1, recombinant ED-B domain of fibronectin (UniProt P02751 1266-1356, biotinylated (biotin disulfide N-hydroxysuccinimide ester) in ELISA and ECL competition; Cy5 at the N-terminal extremity in the band-shift assay); assay: SPR (BIAcore)
T1 construct: domain: ED-B; Recombinant fragment as in Carnemolla et al. 1996; also called biotinylated ED-B; ED-B-biotin
T1 sequence (P02751 1266-1356 limits assumed): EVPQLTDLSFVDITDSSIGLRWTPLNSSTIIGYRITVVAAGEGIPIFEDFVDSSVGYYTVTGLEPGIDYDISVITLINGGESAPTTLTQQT
Method: (§1) After loading, the column was washed with 50 ml of equilibration buffer (PBS, 1 mM EDTA, 0.5 M NaCl). Antibody fragments were then eluted with triethylamine 100 mM, immediately neutralised with 1M Hepes, pH 7, and dialysed against PBS, Affinity measurements by BlAcore were performed with purified antibodies as described (Neri et al. (1997). Nature Biotechnol., 15 1271-1275) [FIG. 4]. Band-shift analysis was performed as described (Neri et al. (1996). Nature Biotechnology, 14, 385-390), using recombinant ED-B fluorescently labeled at the N-terminal extremity (Carnemolla et al. (1996). lnt. J. Cancer, 68, 397-405, Neri et al. (1997). Nature Biotechnol., 15 1271-1275) with the infrared fluorophore Cy5 (Amersham) [FIG. 4]. […] We therefore peformed measurements of the kinetic dissociation constant koff by competition experiments (Neri et al. (1996), Trends in Biotechnol., 14, 465-470) [FIG. 4]. […] Streptavidin-coated dynabeads, diluted in Origen Assay Buffer (Deaver, D. R. (1995). Nature, 377, 758-760) were then added (20 μl, 1 mg/ml), and the resulting mixtures analysed with a ORIGEN Analyzer (IGEN Inc. Gaithersburg, Md. USA).

[4] = target: T1, recombinant ED-B domain of fibronectin; assay: SPR (BIAcore), purified scFv
Method: as §1, with “Meth., 206, 171-182) and affinity purified onto a CNBr-activated sepharose column (Pharmacia, Uppsala, Sweden), which had been coupled with 10 mg of ED-B containing 7B89 recombinant protein (Carnemolla et al. (1996). lnt. J. Cancer, 68, 397-405). After” for “After”, “USA). […]” for “USA).”

[5] = target: T1, recombinant ED-B domain of fibronectin; assay: Kd = koff/kon, koff from ECL competition, kon from BIAcore
Method: as §1, with “J. Cancer, 68, 397-405). After” for “After”, “USA). […]” for “USA).”

[6] = target: T1, recombinant ED-B domain of fibronectin; assay: competition of scFv-(ED-B-biotin) complex with unbiotinylated ED-B, electrochemiluminescent detection (Origen)
Method: as §1, with “J. Cancer, 68, 397-405). After” for “After”, “USA). […]” for “USA).”

hen egg lysozyme (hen), sequence (P00698 19-147): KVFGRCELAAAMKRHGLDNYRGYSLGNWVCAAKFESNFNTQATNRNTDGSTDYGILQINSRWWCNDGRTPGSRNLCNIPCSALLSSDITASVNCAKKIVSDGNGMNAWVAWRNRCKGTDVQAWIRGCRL

immunoreactivity [1]: 80%
Molecule: scFv(D1.3)

immunoreactivity [2]: > 78%
Molecule: scFv(HyHEL-10)

koff [3]: 9.6e-05 s⁻¹
kon [4]: 110000 M⁻¹ s⁻¹
Kd [5]: 0.054 nM
koff [6]: 6e-06 s⁻¹
B1: scFv L19 (high-affinity anti-ED-B human scFv antibody fragment) (scFv)
scFv: EVQLLESGGGLVQPGGSLRLSCAASGFTFSSFSMSWVRQAPGKGLEWVSSISGSSGTTYYADSVKGRFTISRDNSKNTLYLQMNSLRAEDTAVYYCAKPFPYFDYWGQGTLVTVSSGDGSSGGSGGASTGEIVLTQSPGTLSLSPGERATLSCRASQSVSSSYLAWYQQKPGQAPRLLIYYASSRATGIPDRFSGSGSGTDFTLTISRLEPEDFAVYYCQQTGRIPPTFGQGTKVEIKDDDSDDDYKDDDDKHHHHHH
notes: T0005 (VH, linker, VL) is not labelled L19 itself; also called antibody L19
